From the supplement of paper PMC10567573

B1: ESRRA (parent)
chain: LGVAQRSLPLQDELAFAEDLVLDE
B2: LMNB1 (parent)
chain: LYKEELEQTYHAKLENARLSSEMN

Variants of: B1
Assay: protein stability index of a GFP-peptide fusion (GPS, HEK-293T) (PSI 1-6); higher = more stable
Conditions: c terminus: a fixed tail appended
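Note: lentivirally expressed fusions sorted by FACS into six bins by GFP to DsRed ratio, PSI derived from sequencing read proportions per bin multiplied by bin number.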

Going from LGVAQRSLPLQDELAFAEDVVLDE to LGVAQRSLPLQDELAFAEDYVLDE, the protein stability index rises from 3.67 to 4.67.

Going from LGVAQRSLPLQDELAFAEDTVLDE to LGVAQRSLPLQDELAFAEDWVLDE, the protein stability index falls from 5.16 to 4.82.

Going from LGVAQRSLPLQDELAFAEDLVNDE to LGVAQRSLPLQDELAFAEDLVFDE, the protein stability index falls from 4.69 to 3.95.

First: LGVAQRSLPLQDELAFAEDLVHDE
Second: LGVAQRSLPLQDELAFAEDLVCDE
The protein stability index of the first is lower: 3.52 for the first, 3.76 for the second.

Going from LGVAQRSLPLQDELAFAEDLVKDE to LGVAQRSLPLQDELAFAEDLVDDE, the protein stability index rises from 2.74 to 5.13.

Going from LGVAQRSLPLQDELAFAEDLVSDE to LGVAQRSLPLQDELAFAEDLVMDE, the protein stability index falls from 5.02 to 4.2.

Going from LGVAQRSLPLQDELAFAEDLVADE to LGVAQRSLPLQDELAFAEDLVEDE, the protein stability index rises from 3.96 to 5.71.

First: LGVAQRSLPLQDELAFAEDLVTDE
Second: LGVAQRSLPLQDELAFAEDLVRDE
The protein stability index of the first is higher: 5.18 for the first, 2.89 for the second.

Going from LGVAQRSLPLQDELAFAEDLVQDE to LGVAQRSLPLQDELAFAEDLVYDE, the protein stability index rises from 3.81 to 3.98.

Going from LGVAQRSLPLQDELAFAEDLVWDE to LGVAQRSLPLQDELAFAEDLVIDE, the protein stability index falls from 3.85 to 3.55.

Compared with LGVAQRSLPLQDELAFAEDLVVDE, LGVAQRSLPLQDELAFAEDLVGDE is higher in protein stability index: 4.14 for the first, 5.51 for the second.

First: LGVAQRSLPLQDELAFAEDLVPDE
Second: LGVAQRSLPLQDELAFAEDLVLDF
The protein stability index of the first is higher: 5.34 for the first, 2.42 for the second.

Compared with LGVAQRSLPLQDELAFAEDLVLDP, LGVAQRSLPLQDELAFAEDLVLDM is lower in protein stability index: 3.92 for the first, 2.95 for the second.

Going from LGVAQRSLPLQDELAFAEDLVLDC to LGVAQRSLPLQDELAFAEDLVLDI, the protein stability index rises from 1.66 to 3.34.

Compared with LGVAQRSLPLQDELAFAEDLVLDR, LGVAQRSLPLQDELAFAEDLVLDW is lower in protein stability index: 3.38 for the first, 2.21 for the second.

First: LGVAQRSLPLQDELAFAEDLVLDK
Second: LGVAQRSLPLQDELAFAEDLVLDD
The protein stability index of the first is lower: 4.02 for the first, 4.07 for the second.

Compared with LGVAQRSLPLQDELAFAEDLVLDV, LGVAQRSLPLQDELAFAEDLVLDN is higher in protein stability index: 2.21 for the first, 3.24 for the second.

Compared with LGVAQRSLPLQDELAFAEDLVLDT, LGVAQRSLPLQDELAFAEDLVLDS is higher in protein stability index: 3.11 for the first, 3.13 for the second.

Going from LGVAQRSLPLQDELAFAEDLVLDY to LGVAQRSLPLQDELAFAEDLVLDL, the protein stability index falls from 2.53 to 2.3.

Going from LGVAQRSLPLQDELAFAEDLVLDH to LGVAQRSLPLQDELAFAEDLVLDG, the protein stability index rises from 2.57 to 4.13.

Going from LGVAQRSLPLQDELAFAEDLVLDA to LGVAQRSLPLQDELAFAEDLVLDQ, the protein stability index rises from 1.89 to 3.67.

First: LGVAQRSLPLQDELAFAEDLVLGE
Second: LGVAQRSLPLQDELAFAEDLVLRE
The protein stability index of the first is lower: 1.72 for the first, 2.51 for the second.

Going from LGVAQRSLPLQDELAFAEDLVLYE to LGVAQRSLPLQDELAFAEDLVLME, the protein stability index falls from 2.3 to 2.01.

Compared with LGVAQRSLPLQDELAFAEDLVLIE, LGVAQRSLPLQDELAFAEDLVLTE is higher in protein stability index: 1.51 for the first, 3.21 for the second.

Going from LGVAQRSLPLQDELAFAEDLVLCE to LGVAQRSLPLQDELAFAEDLVLLE, the protein stability index rises from 2.38 to 2.64.

First: LGVAQRSLPLQDELAFAEDLVLNE
Second: LGVAQRSLPLQDELAFAEDLVLFE
The protein stability index of the first is lower: 1.88 for the first, 5.28 for the second.

Compared with LGVAQRSLPLQDELAFAEDLVLAE, LGVAQRSLPLQDELAFAEDLVLQE is lower in protein stability index: 3.11 for the first, 1.74 for the second.

Going from LGVAQRSLPLQDELAFAEDLVLEE to LGVAQRSLPLQDELAFAEDLVLVE, the protein stability index falls from 2.65 to 1.88.

Compared with LGVAQRSLPLQDELAFAEDLVLSE, LGVAQRSLPLQDELAFAEDLVLPE is higher in protein stability index: 2.58 for the first, 4.49 for the second.

Going from LGVAQRSLPLQDELAFAEDLVLHE to LGVAQRSLPLQDELAFAEDLVLWE, the protein stability index falls from 2.34 to 2.1.

Compared with LGVAQRSLPLQDELAFAEDLVLKE, LGVAQRSLPLQDELAFAEDLCLDE is higher in protein stability index: 2.41 for the first, 4.31 for the second.

First: LGVAQRSLPLQDELAFAEDLYLDE
Second: LGVAQRSLPLQDELAFAEDLALDE
The protein stability index of the first is lower: 4.61 for the first, 5.06 for the second.

First: LGVAQRSLPLQDELAFAEDLLLDE
Second: LGVAQRSLPLQDELAFAEDLQLDE
The protein stability index of the first is lower: 3.96 for the first, 5.24 for the second.

Going from LGVAQRSLPLQDELAFAEDLTLDE to LGVAQRSLPLQDELAFAEDLILDE, the protein stability index falls from 5.39 to 1.56.

Compared with LGVAQRSLPLQDELAFAEDLRLDE, LGVAQRSLPLQDELAFAEDLKLDE is higher in protein stability index: 4.83 for the first, 5.28 for the second.

Compared with LGVAQRSLPLQDELAFAEDLPLDE, LGVAQRSLPLQDELAFAEDLGLDE is higher in protein stability index: 5.27 for the first, 5.31 for the second.

Going from LGVAQRSLPLQDELAFAEDLFLDE to LGVAQRSLPLQDELAFAEDLWLDE, the protein stability index falls from 4.63 to 4.03.

Compared with LGVAQRSLPLQDELAFAEDLSLDE, LGVAQRSLPLQDELAFAEDLELDE is higher in protein stability index: 4.43 for the first, 5.31 for the second.

Compared with LGVAQRSLPLQDELAFAEDLNLDE, LGVAQRSLPLQDELAFAEDLDLDE is higher in protein stability index: 5.49 for the first, 5.76 for the second.

Going from LGVAQRSLPLQDELAFAEDLHLDE to LGVAQRSLPLQDELAFAEDLMLDE, the protein stability index falls from 5.28 to 4.49.

Variants of: B2
Assay: as above
Conditions: c terminus: a fixed tail appended

Compared with LYKEELEQTYHAKLENARLVSEMN, LYKEELEQTYHAKLENARLWSEMN is lower in protein stability index: 2.88 for the first, 1.82 for the second.

First: LYKEELEQTYHAKLENARLFSEMN
Second: LYKEELEQTYHAKLENARLPSEMN
The protein stability index of the first is lower: 2.29 for the first, 3.18 for the second.

Going from LYKEELEQTYHAKLENARLSSEMF to LYKEELEQTYHAKLENARLSSEMC, the protein stability index rises from 1.88 to 2.33.

Compared with LYKEELEQTYHAKLENARLSSEMH, LYKEELEQTYHAKLENARLSSEMP is lower in protein stability index: 3.28 for the first, 2.17 for the second.

Going from LYKEELEQTYHAKLENARLSSEDN to LYKEELEQTYHAKLENARLSSEAN, the protein stability index rises from 2.82 to 3.24.

First: LYKEELEQTYHAKLENARLSSEGN
Second: LYKEELEQTYHAKLENARLSSEIN
The protein stability index of the first is higher: 2.8 for the first, 2.6 for the second.

Going from LYKEELEQTYHAKLENARLSSEKN to LYKEELEQTYHAKLENARLSSEPN, the protein stability index falls from 3.28 to 2.67.
